Measurements: patent publication US9556424B2, “1-deoxy-D-xylulose 5-phosphate synthase alleles responsible for enhanced terpene biosynthesis” (GENOPLANTE-VALOR, priority 2010, dated 2017)

B1: MoDXS1: typical (wild type) DXS allele shared by Vitis vinifera cv Muscat Ottonel and Gewurztraminer (protein)
chain: MALCTLSFPAHFSQAAASNPQRLTPQCSHLFLGVDLQCQSQQRSKARKRPNGVCASLSDREEYHSQRPPTPLLDTINYPIHMKNLSVKELKQLADELRSDVVFNVSKTGGHLGSSLGVVELTVALHYVFNAPQDRILWDVGHQSYPHKILTGRRDQMHTMRQTDGLAGFTKRSESEYDCFGTGHSSTTISAGLGMAVGRDLKGKNNNVIAVIGDGAMTAGQAYEAMNNAGYLDSDMIVILNDNKQVSLPTATLDGPIPPVGALSSALSRLQSNRPLRELREVAKGVTKQIGGPMHELAAKVDEYARGMISGSGSTLFEELGLYYIGPVDGHNIDDLVAILKEVKSTKTTGPVLIHVVTEKGRGYPYAEKAADKYHGVTKFDPATGKQFKSSAPTQSYTTYFAEALIAEAEVDKDIVAIHAAMGGGTGLNLFHRRFPTRCFDVGIAEQHAVTFAAGLACEGIKPFCAIYSSFMQRAYDQVVHDVDLQKLPVKFAMDRAGLVGADGPTHCGAFDVAFMACLPNMVVMAPADEAELFHMVATAAAIDDRPSCFRYPRGNGVGVELPPGNKGIPIEVGRGRILIEGERVALLGYGTAVQSCLVASSLLEQHGLRITVADARFCKPLDHALIRSLAKSHEVLITVEEGSIGGFGSHVAQFLALNGLLDGTTKWSPMVLPDRYIDHGAPADQLAMAGLTPSHIAATVFNILGQTREALEIML
modifications: Vitis Vinifera
notes: typical (wild type) DXS allele shared by Vitis vinifera cv Muscat Ottonel and Gewurztraminer
B2: MoDXS2: DXS allele of Vitis vinifera cv Muscat Ottonel with K284→N mutation (protein)
chain: MALCTLSFPAHFSQAAASNPQRLTPQCSHLFLGVDLQCQSQQRSKARKRPNGVCASLSDREEYHSQRPPTPLLDTINYPIHMKNLSVKELKQLADELRSDVVFNVSKTGGHLGSSLGVVELTVALHYVFNAPQDRILWDVGHQSYPHKILTGRRDQMHTMRQTDGLAGFTKRSESEYDCFGTGHSSTTISAGLGMAVGRDLKGKNNNVIAVIGDGAMTAGQAYEAMNNAGYLDSDMIVILNDNKQVSLPTATLDGPIPPVGALSSALSRLQSNRPLRELREVANGVTKQIGGPMHELAAKVDEYARGMISGSGSTLFEELGLYYIGPVDGHNIDDLVAILKEVKSTKTTGPVLIHVVTEKGRGYPYAEKAADKYHGVTKFDPATGKQFKSSAPTQSYTTYFAEALIAEAEVDKDIVAIHAAMGGGTGLNLFHRRFPTRCFDVGIAEQHAVTFAAGLACEGIKPFCAIYSSFMQRAYDQVVHDVDLQKLPVKFAMDRAGLVGADGPTHCGAFDVAFMACLPNMVVMAPADEAELFHMVATAAAIDDRPSCFRYPRGNGVGIELPPGNKGIPIEVGRGRILIEGERVALLGYGTAVQSCLVASSLLEQHGLRITVADARFCKPLDHALIRSLAKSHEVLITVEEGSIGGFGSHVAQFLALNGLLDGTTKWSPMVLPDRYIDHGAPADQLAMAGLTPSHIAATVFNILGQTREALEIML
modifications: Vitis Vinifera
notes: DXS allele of Vitis vinifera cv Muscat Ottonel with K284→N mutation
B3: GwDXS2: DXS allele of Vitis vinifera cv Gewurztraminer with R306→C mutation (protein)
chain: MALCTLSFPAHFSQAAASNPQRLTPQCSHLFLGVDLQCQSQQRSKARKRPNGVCASLSDREEYHSQRPPTPLLDTINYPIHMKNLSVKELKQLADELRSDVVFNVSKTGGHLGSSLGVVELTVALHYVFNAPQDRILWDVGHQSYPHKILTGRRDQMHTMRQTDGLAGFTKRSESEYDCFGTGHSSTTISAGLGMAVGRDLKGKNNNVIAVIGDGAMTAGQAYEAMNNAGYLDSDMIVILNDNKQVSLPTATLDGPIPPVGALSSALSRLQSNRPLRELREVAKGVTKQIGGPMHELAAKVDEYACGMISGSGSTLFEELGLYYIGPVDGHNIDDLVAILKEVKSTKTTGPVLIHVVTEKGRGYPYAEKAADKYHGVTKFDPATGKQFKSSAPTQSYTTYFAEALIAEAEVDKDIVAIHAAMGGGTGLNLFHRRFPTRCFDVGIAEQHAVTFAAGLACEGIKPFCAIYSSFMQRAYDQVVHDVDLQKLPVKFAMDRAGLVGADGPTHCGAFDVAFMACLPNMVVMAPADEAELFHMVATAAAIDDRPSCFRYPRGNGVGVELPPGNKGIPIEVGRGRILIEGERVALLGYGTAVQSCLVASSLLEQHGLRITVADARFCKPLDHALIRSLAKSHEVLITVEEGSIGGFGSHVAQFLALNGLLDGTTKWSPMVLPDRYIDHGAPADQLAMAGLTPSHIAATVFNILGQTREALEIML
modifications: Vitis Vinifera
notes: DXS allele of Vitis vinifera cv Gewurztraminer with R306→C mutation

Tests used:
tobacco leaves = assay: Agrobacterium-mediated transient co-expression of GES and DXS alleles in tobacco leaves, geraniol by GC-MS; assay type: in vivo, Nicotiana benthamiana; conditions: 96 h after infiltration; for increase in geraniol accumulation in tobacco leaves: co-expression with GES, in average
From the text: In order to characterize DXS alleles activity, the inventors used Agrobacterium-mediated transient transformation of tobacco (Nicotiana benthamiana), which allows a fast and efficient gene expression in tobacco leaves (Batoko et al., 2000). This approach was already used successfully to characterize genes involved in grapevine secondary metabolism (Schmidlin et al., 2008; Hugueney et al., 2009). MoDXS1, MoDXS2 and GwDXS2 alleles were expressed in tobacco leaves, together with a cDNA encoding the enzyme geraniol synthase (GES) from basilicum (Ocimum basalicum) (Iijima et al., 2004). […] Thus, GC-M5 analyses of tobacco leaves co-expressing GES and DXS alleles allowed an accurate comparison of DXS alleles activity in planta.
Grapevine DXS cDNAs were amplified by PCR using the upstream primer 5′-[…] TACGCTCTCATTTCC-3′ (SEQ ID No11) and the downstream primer 5′-[…]-3′ (SEQ ID No12), and cloned into the pDONR207 Gateway compatible vector (Invitrogen, Carlsbad, Calif.) using Gateway BP clonase (Invitrogen) according to the manufacturer's instructions. DXS cDNAs were sequenced to verify that no mutation had been introduced. For Agrobacterium-mediated transient expression, DXS cDNAs were subsequently transferred into the GATEWAY binary vector pMDC32 (Curtis and Grossniklaus., 2003). Geraniol synthase cDNA from basilicum (Ocimum basilicum) (Iijima et al., 2004) was cloned into the GATEWAY binary vector pMDC83 (Curtis and Grossniklaus., 2003) and expressed as a GFP fusion protein. All constructs were introduced into Agrobacterium tumefaciens strain C58 (pMP90) by electroporation. Nicotiana benthamiana leaves were infiltrated with A. tumefaciens cultures (OD600 0.5) according to Voinnet et al. (2003). Leaf sectors were […] for terpene content 96 h after Agrobacterium infiltration.
For each sampling point, three replicates of terpenol analysis were performed. After weighing, tobacco leaf sectors (about 1 g) were ground under liquid nitrogen and then suspended in 2 mL of ultra-pure water. […]

grape berries = assay: Terpenol content in grape berry skins as a function of DXS alleles (MO and GW progeny); assay type: in vivo, Vitis vinifera; conditions: by DXS genotype in MO and GW progeny, pool of 5 major terpenols
Method: Isolation of Free and Bound Monoterpenols by Solid Phase Extraction (SPE)
For each sampling point, three replicates of terpenol analysis were performed. For each replicate, at least 25 berries were used. Seeds were removed and skins separated from mesocarps. After weighing, skins were ground under liquid nitrogen and then suspended in 40 mL of water after addition of 40 mg of sodium sulphite. The supernatant obtained after a 15-min centrifugation (11400 g at 4° C.) was passed through a glass fibre pre-filter and a glass filter. Twenty microliters of a 1 g/L 4-nonanol solution was added as external standard to allow the quantification of the main terpenols. Extraction of terpenols was adapted from Mateo et al. (1997), ethanol being used instead of methanol. The filtrate was passed through a 1 g phase C18 silica-bonded non-polar SPE column (BOND ELUT JR.), previously washed with 5 mL of methanol and 15 mL of ultra-pure water, at a rate of approximately one drop/s. The sample was then divided in two equal subsamples, one for the analysis of free and glycosidically bound monoterpenols and one for the analysis of free terpenols. Total fractions of free and bound monoterpenols were eluted with 4 mL of absolute ethanol. […]

| Molecule | geraniol biosynthesis (tobacco leaves; co-expression with GES in tobacco leaves, versus GES alone) | terpenol content in grape berries (grape berries) | increase in geraniol accumulation in tobacco leaves (tobacco leaves) |
| --- | --- | --- | --- |
| B1 | substantial increases | extremely low levels of terpenols | – |
| B2 | – | – | three time increase |
| B3 | – | – | three time increase |
